Patent US20220125947A1

How the values were obtained:
[1] = target: Vg5/Vd2 TCR on SKW3 cells (UniProt A0JD36); test: flow cytometry, dose-response binding at 37° C. on SKW3 cells expressing Vg5/Vd2
[2] = target: Vg9/Vd1 TCR on SKW3 cells (UniProt Q99603); test: flow cytometry, dose-response binding at 37° C. on SKW3 cells expressing Vg9/Vd1
[3] = target: Vg9/Vd2 TCR on SKW3_4 cells (UniProt Q99603); test: flow cytometry, dose-response binding at 37° C. on SKW3_4 cells expressing Vg9/Vd2
Chain of Vg9/Vd2 TCR on SKW3_4 cells (Q99603 21-122, chain 1 of 2): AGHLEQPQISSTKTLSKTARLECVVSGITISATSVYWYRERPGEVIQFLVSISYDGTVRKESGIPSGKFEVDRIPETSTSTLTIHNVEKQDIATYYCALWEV
Chain of Vg9/Vd2 TCR on SKW3_4 cells (A0JD36 20-115, chain 2 of 2, further chain): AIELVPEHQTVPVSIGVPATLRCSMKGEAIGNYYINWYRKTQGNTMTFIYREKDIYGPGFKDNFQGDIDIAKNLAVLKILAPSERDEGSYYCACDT

Chain of Vg5/Vd2 TCR on SKW3 cells (A0JD36 20-115): as the sequence (A0JD36 20-115, chain 2 of 2, further chain) above
Chain of Vg9/Vd1 TCR on SKW3 cells (Q99603 21-122): as the sequence (Q99603 21-122, chain 1 of 2) above

| Max. Activity (fold over background) [1] | Max. Activity (fold over background) [2] | Max. Activity (fold over background) [3] | Binder |
| --- | --- | --- | --- |
| 2.13 | 375 | 170 | VG9B44 (antibody, human IgG1, kappa, V domains shown) VH: QVQLQQSGPGLVKPSQTLSLTCAISGDSVSSNSAAWNWIRQSPSRGLEWLGRTYYRSKWYNDYPISVKSRISINPDTSKNQFSLQLNSVTPEDTAVYYCARESGSYYTDGFDIWGQGTMVTVSS VL: DIQMTQSPSFLSASVGDRVTITCRASQGISSYLAWYQQKPGKAPKLLIYAASTLQSGVPSRFSGSGSGTEFTLTISSLQPEDFATYYCQEFNSYPYTFGQGTKLEIKR |
| 1.64 | 352 | 141 | VG9B152 (antibody, human IgG1, lambda, V domains shown) VH: EVQLVESGGGLVRPGGSLRLSCEASGFTFSSYSMIWVRQAPGKGLEWVSSISSSSDYIYNADSVKGRFTISRDNAKNSLYLQMNSLRAEDTAVYYCARDWELLGFDCWGQGTTVTVSS VL: SYELMQPPSVSVSPGQTASITCSGDKLGDKYACWYQQKPGQSPVLVIYQHNKRPSGIPERFSGSNSGKTATLTISGTQAMDEADYYCQAWDSTTVVFGGGTKLTVLG |
| 2.44 | 249 | 96.3 | VG9B162 (antibody, human IgG1, lambda, V domains shown) VH: QVQLVESGAEVTKPGASVKVSCKASGYTFTGDYMHWVRQAPGQGLEWMGWINPNSGYTNYAQKFQGRVTMTRDTSISTAYMELSRLRSDDTAVYYCAREGDAFDVWGQGTMVTVSS VL: QLVLTQSSSASGSPGQSVTISCTGTSSDVGGYNYVSWYQQHPGKAPKLMIYEVSKRPSGVPDRFSGSKSGNTASLTVSGLQAEDEADYYCNSYAGSNNFEVFGGGTKLTVLG |

Further lines, the binder ahead of its results:

| Binder | Max. Activity (fold over background) [1] | Max. Activity (fold over background) [2] | Max. Activity (fold over background) [3] |
| --- | --- | --- | --- |
| VG9B67 (antibody, human IgG1, kappa, V domains shown) VH: EVQLVESGGGLVKPGGSLRLSCAASGFTFSSYTMNWVRQAPGKGLEWVSSISSSSSYIDYAESVKGRFTISRDNAKNSLYLQMNSLRAEDTAVYYCARDGDILATIRGSFDYWGQGTTVTVSS VL: DIVMTQTPLSLPVTPGEPASISCRSSQSLLDSDAGNTYLDWYLQKPGQSPQLLIYTLSYRASGVPDRFSGSGSGTDFTLKISRVEAEDVAIYYCMQRIEFPITFGQGTKVEIKR | 1.14 | 318 | 128 |
| VG9B127 (antibody, human IgG1, kappa, V domains shown) VH: QVQLVESGGGLVKPGGSLRLSCTASGFTFGAYTMNWVRQAPGKGLEWVSSISSSSSYIDFAESVKGRFTISRDNAKNSLYLQMISLRAEDTAVYYCARDGDIVSTIRGSFDYWGQGALVTVSS VL: EIVMTQSPLSLPVTPGEPASISCRSSQSLLDSDDGNTYLDWYLQKPGQSPQLLIYTLSYRASGVPDRFSGSGSGTDFTLKISRVEAEDVGIYYCMQRIEFPITFGQGTKVEIKR | 1.78 | 318 | 91.9 |
| VG9B191 (antibody, human IgG1, lambda, V domains shown) VH: EVQLVQSGGGLVKPGGSLRLSCAASGFTFSRYSMNWVRQAPGKGLEGVSSISSSSSYIYYADSVKGRFTISRDNAKNSLYLQMNSLRAEDTAVYYCARDGPTVNWDYYFDLWGRGTLVTVSS VL: QSVLTQPPSVSAAPGQKVTISCSGSSSNIGNNYVSWYQQLPGTAPKLLIYDNNKRPSGIPDRFSGSKSGTSATLGITGLQTGDEADYYCGTWDSSLSTSVVFGGGTKLTVLG | 17.2 | 381 | 156 |
| VG9B33 (antibody, human IgG1, kappa, V domains shown) VH: EVQLVESGGGLVKPGGSLRLSCAASGFTFSSYNMNWVRQAPGKGLEWVSSISTSSSYIYYADSVKGRFTISRDNAKNSLYLQMNGLRAEDTAVYYCARDTSVTKYPDTFDIWGQGTMVTVSS VL: DIVMTQSPSSLSASVGDRVTITCRASQDINNYLAWFQQKPGKVPNLLIYGASTLQSGVPSRFTGSGSGTDFTLTISSLQPEDVATYYCQKYNSAPFTFGPGTKVDIKR | 2.85 | 377 | 173 |
